Experimental data from patent US20050282743A1, “Molecular interactions in cells” (Arbor Vita Corporation, priority 2001, published 2005).
Where a name gives a salt, the structure may show the parent alone. Ends that are not written are not given here. * marks the point of attachment. Biotin = O=C1N[C@H]2[C@H](CS[C@H]2CCCCC(=O)*)N1

How the values were obtained:
Format in all cases: binding
[1] = target: T1, ZO-2 (1/3) : DNAM (22L) (Homo sapiens, UniProt Q9UDY2); assay: G assay with FDA approved drug (Example 7, TABLE 10B)
T1 construct: made in house; host or cells: E. coli (DH5α, BL21 or JM109)
T1 sequence (Q9UDY2 27-122): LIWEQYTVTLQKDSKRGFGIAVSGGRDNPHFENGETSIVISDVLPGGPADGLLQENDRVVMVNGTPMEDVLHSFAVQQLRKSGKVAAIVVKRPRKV
Experimental: (§1) For certain of the PDZ proteins and PL proteins shown to bind together and for which Kd values had been obtained, additional testing was conducted to determine whether certain pharmaceutical compounds would act to antagonize or agonize the interactions. Assays were conducted as for the G′ assay described supra both in the presence and absence of test compound, except that 50 ul of a 10 uM solution of the biotinylated PL peptide is allowed to react with the surface bearing the PDZ-domain polypeptide instead of a 20 uM solution as specified in step (2) of the assay.
(§2) In both tables, the first column (left to right) entitled “PDZ domain” lists the gene name of GST-PDZ domain fusion (see TABLE 9). Entries having two numbers separated by a slash indicate which PDZ domain was utilized. For example, in TABLE 10A, the entry for ZO-3 is 1/3. This means that PDZ domain 1 of 3 was used.
(§3) The second column labeled “PL” indicates the name of the PDZ ligand (see TABLES 10A and 10B) interacting with the PDZ domain. The third column entitled “Drug” lists the common or trade name of pharmaceutical compound tested and found to modulate the specific PDZ-PL interaction (suppliers and chemical information are listed in TABLE 11). The final column with the heading “Change in OD” indicates the change in absorbance at 450 nm of the assay in the absence (first number) or presence (second number) of chemical compound.
(§4) Many FDA approved drugs have unknown mechanism of function. It is quite possible that some of these drugs function by disrupting or increasing PDZ/PL interactions. This possibility was examined by using the ‘G Assay’ (Example 3 section D). FDA approved drugs were incubated in the presence of the labeled peptide and compared to the same interaction without drug to determine if there was an effect on specific PDZ:PL interactions (drugs added with peptide at step 9 in Example 3D). The primary focus of this experiment was on drugs involved in treatment of depression (amitriptyline, desipramine, trimipramine, benztropine, and nortryptilline) and epilepsy (valproic acid). No modes of action are known for these drugs.
(§5) Therapeutic dose was determined by guidelines given in the Physician's Desk Reference and in the assay, 200 times this amount was used. If a dosage range was given, the upper end of the range was used. Each interaction listed in TABLES 10A & B was tested in the ‘G Assay’ (see Example 3) against each of the drugs listed in TABLE 11. The concentration of GST-fusion protein and peptide used in the assay represent the Kd and were determined by titration. These values can be found in TABLE 7. The drugs were added to the peptide before addition to the well containing the PDZ protein. Otherwise, the assay was carried out as described and read at 450 nm after 30 minutes of developing. For the sequences of the PDZs and PLs used in these tests, see TABLES 8 & 9.
(§6) List of interactions and therapeutics for which a modulation of binding was observed. Concentrations at which the GST-PDZ fusion protein and labeled peptide were used can be found in Table 7 or Table 12.

[2] = target: T2, PDZ protein (GST-PDZ fusion) (Homo sapiens, UniProt O15021); assay: G' assay (10 uM PL peptide), results of TABLE 7 and TABLE 12; details: PDZ KIAA0303, PDZ Domain 1
T2 construct: made in house; host or cells: E. coli (DH5alpha, BL21 or JM109)
How it was run: (§7)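 Same steps as the G-zero format, apart from a peptide concentration of 10 uM in place of 20 uM in step 2. Amino-terminally biotinylated PL peptides bind GST-PDZ fusions, and retained peptide is quantified by 450 nm absorbance.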

[3] = target: T3, PDZ protein (GST-PDZ fusion) (Homo sapiens, UniProt O14907); assay: as above; details: PDZ TIP1, PDZ Domain 1
T3 construct: made in house; host or cells: E. coli (DH5alpha, BL21 or JM109)
T3 sequence (O14907 1-124): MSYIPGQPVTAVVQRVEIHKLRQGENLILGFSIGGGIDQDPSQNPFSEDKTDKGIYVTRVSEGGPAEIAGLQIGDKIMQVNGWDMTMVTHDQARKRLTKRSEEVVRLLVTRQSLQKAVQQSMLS
How it was run: as §7

[4] = target: T4, PDZ protein (GST-PDZ fusion) (Homo sapiens, UniProt P78352); assay: as above; details: PDZ PSD95, PDZ Domain 1, 2, 3
T4 construct: made in house; host or cells: E. coli (DH5alpha, BL21 or JM109)
How it was run: as §7

[5] = test system: PDZ protein (GST-PDZ fusion); assay: as above
How it was run: as §7

[6] = target: T5, PDZ protein (GST-PDZ fusion) (Homo sapiens, UniProt Q6P0Q8); assay: as above; details: PDZ KIAA807
T5 construct: made in house; host or cells: E. coli (DH5alpha, BL21 or JM109)
How it was run: as §7

[7] = test system: hSyntenin : Presenilin (115L); assay: G assay with FDA approved drug (Example 7, TABLE 10A); details: OD in absence of drug 1.1; drug concentration per TABLE 11; read after 30 minutes
Experimental: as §1, §2, §3, §4, §5, §6

[8] = target: T6, NeDLG (PDZ Domain 1, 2) (Homo sapiens, UniProt Q92796); assay: G' assay, TABLE 12; details: A450 nm class of biotinylated PL peptide bound; 0 in conc columns = peptide 10 uM, protein 5 ug/ml
T6 construct: When more than one PDZ domain was cloned, the DNA portion cloned represents the PDZ domains and the cDNA portion located between individual domains; made in house; host or cells: E. coli (DH5alpha, BL21 or JM109)
T6 sequence (Q92796 129-315 limits assumed): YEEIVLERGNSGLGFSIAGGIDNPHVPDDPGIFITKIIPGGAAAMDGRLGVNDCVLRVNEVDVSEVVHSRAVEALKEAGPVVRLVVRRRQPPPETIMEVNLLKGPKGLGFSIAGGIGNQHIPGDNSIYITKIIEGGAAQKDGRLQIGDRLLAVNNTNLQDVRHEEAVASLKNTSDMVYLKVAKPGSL
Experimental: (§8) The third column labeled “Peptide Optimal Concentration” in the tables is a number reflective of the binding interaction between the PL protein and PDZ protein. […] The column labeled “Protein Optimal Concentration” refers to the protein concentration used to assay PL interaction (in ug/ml); a ‘0’ is indicative of 5 ug/ml protein concentration; any other value represents the concentration (in ug/ml) used to determine the dissociation constant for a given interaction.
(§9) Finally, the seventh column labeled “Classification” is another measure of the level of binding. In particular, it provides an absorbance value at 450 nm which indicates the amount of PL peptide bound to the PDZ protein. The following numerical values have the following meanings: ‘1’—A450 nm 0-1; ‘2’—A450 nm 1-2; ‘3’—A450 nm 2-3; ‘4’—A450 nm 3-4; ‘5’—A450 nm of 4 more than 2× repeated; ‘0’—A450 nm 0, i.e., not found to interact. Thus, higher numbers indicate stronger interactions.
(§10) For convenience, the assay conditions described in this section are referred to as the “G′ assay” and the “G″ assay,” with the specific conditions described in the preceding section on G assays being referred to as the “G^0 assay.” The “G′ assay” is identical to the “G^0 assay” except at step (2) the peptide concentration is 10 uM instead of 20 uM. […] Correspondingly, it slightly increases the certainty that detected interactions are of sufficient affinity and half-life to be of biological importance and useful therapeutic targets.

[9] = target: T7, DLG1 (PDZ Domain 1, 2) (Homo sapiens, UniProt Q12959); assay: G' assay, TABLE 12; details: A450 nm class of biotinylated PL peptide bound; 0 in conc columns = peptide 10 uM, protein 5 ug/ml
T7 construct: made in house; host or cells: E. coli (DH5alpha, BL21 or JM109)
Experimental: as §8, §9, §10

[10] = target: T8, PSD95 (PDZ Domain 1, 2, 3) (Homo sapiens, UniProt P78352); assay: G' assay, TABLE 12; details: A450 nm class of biotinylated PL peptide bound; 0 in conc columns = peptide 10 uM, protein 5 ug/ml
T8 construct: When more than one PDZ domain was cloned, the DNA portion cloned represents the PDZ domains and the cDNA portion located between individual domains; made in house; host or cells: E. coli (DH5alpha, BL21 or JM109)
Experimental: as §8, §9, §10

[11] = target: T9, PDZ protein (GST-PDZ fusion) (Homo sapiens, UniProt Q5TCQ9); assay: G' assay (10 uM PL peptide), results of TABLE 7 and TABLE 12; details: PDZ KIAA1634, PDZ Domain 2
T9 construct: made in house; host or cells: E. coli (DH5alpha, BL21 or JM109)
T9 sequence (Q5TCQ9 1-1481): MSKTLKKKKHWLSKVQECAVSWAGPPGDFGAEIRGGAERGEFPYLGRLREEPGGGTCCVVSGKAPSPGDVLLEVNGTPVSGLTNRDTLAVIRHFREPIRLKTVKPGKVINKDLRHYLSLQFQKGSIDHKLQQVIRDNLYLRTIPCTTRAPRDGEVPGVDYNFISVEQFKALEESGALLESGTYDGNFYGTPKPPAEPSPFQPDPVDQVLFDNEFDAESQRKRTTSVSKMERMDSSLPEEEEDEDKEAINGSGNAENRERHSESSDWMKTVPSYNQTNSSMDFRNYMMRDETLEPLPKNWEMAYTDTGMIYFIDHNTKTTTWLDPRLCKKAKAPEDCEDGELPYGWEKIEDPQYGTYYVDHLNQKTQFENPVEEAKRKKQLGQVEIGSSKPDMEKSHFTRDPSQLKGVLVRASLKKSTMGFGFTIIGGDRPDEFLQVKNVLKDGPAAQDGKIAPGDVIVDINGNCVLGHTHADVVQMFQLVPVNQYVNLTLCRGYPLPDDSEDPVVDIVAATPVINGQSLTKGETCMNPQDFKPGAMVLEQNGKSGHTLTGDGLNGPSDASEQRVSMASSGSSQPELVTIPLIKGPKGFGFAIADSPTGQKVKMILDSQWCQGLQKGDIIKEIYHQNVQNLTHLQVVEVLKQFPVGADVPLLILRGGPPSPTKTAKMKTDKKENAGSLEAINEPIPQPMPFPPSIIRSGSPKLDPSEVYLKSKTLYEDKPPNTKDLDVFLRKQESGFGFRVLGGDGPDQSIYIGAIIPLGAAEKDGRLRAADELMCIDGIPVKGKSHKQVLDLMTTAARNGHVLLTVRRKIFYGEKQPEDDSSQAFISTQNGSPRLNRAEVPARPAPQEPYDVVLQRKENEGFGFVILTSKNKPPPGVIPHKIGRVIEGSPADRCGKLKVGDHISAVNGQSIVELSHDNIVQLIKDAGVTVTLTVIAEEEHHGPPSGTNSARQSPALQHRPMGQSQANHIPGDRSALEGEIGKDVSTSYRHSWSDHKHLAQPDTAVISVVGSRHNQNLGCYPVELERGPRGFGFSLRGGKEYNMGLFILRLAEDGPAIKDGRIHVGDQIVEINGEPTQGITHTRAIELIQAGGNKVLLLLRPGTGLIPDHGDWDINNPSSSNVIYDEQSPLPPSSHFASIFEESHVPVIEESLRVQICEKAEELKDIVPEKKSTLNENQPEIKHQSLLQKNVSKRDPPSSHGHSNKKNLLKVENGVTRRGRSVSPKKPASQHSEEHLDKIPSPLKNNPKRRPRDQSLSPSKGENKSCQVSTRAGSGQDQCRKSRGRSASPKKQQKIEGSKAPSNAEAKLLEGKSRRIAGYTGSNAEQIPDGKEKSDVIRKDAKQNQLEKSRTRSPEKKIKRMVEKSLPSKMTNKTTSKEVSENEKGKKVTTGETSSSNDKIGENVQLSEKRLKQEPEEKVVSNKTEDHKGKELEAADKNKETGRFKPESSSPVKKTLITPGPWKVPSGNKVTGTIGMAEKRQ
How it was run: as §7

[12] = target: T10, PDZ protein (GST-PDZ fusion) (Homo sapiens, UniProt Q12923); assay: as above; details: PDZ PTPL-1, PDZ Domain 2
T10 construct: made in house; host or cells: E. coli (DH5alpha, BL21 or JM109)
How it was run: as §7

T2 sequence (O15021 whole entry, the tested form may be a part): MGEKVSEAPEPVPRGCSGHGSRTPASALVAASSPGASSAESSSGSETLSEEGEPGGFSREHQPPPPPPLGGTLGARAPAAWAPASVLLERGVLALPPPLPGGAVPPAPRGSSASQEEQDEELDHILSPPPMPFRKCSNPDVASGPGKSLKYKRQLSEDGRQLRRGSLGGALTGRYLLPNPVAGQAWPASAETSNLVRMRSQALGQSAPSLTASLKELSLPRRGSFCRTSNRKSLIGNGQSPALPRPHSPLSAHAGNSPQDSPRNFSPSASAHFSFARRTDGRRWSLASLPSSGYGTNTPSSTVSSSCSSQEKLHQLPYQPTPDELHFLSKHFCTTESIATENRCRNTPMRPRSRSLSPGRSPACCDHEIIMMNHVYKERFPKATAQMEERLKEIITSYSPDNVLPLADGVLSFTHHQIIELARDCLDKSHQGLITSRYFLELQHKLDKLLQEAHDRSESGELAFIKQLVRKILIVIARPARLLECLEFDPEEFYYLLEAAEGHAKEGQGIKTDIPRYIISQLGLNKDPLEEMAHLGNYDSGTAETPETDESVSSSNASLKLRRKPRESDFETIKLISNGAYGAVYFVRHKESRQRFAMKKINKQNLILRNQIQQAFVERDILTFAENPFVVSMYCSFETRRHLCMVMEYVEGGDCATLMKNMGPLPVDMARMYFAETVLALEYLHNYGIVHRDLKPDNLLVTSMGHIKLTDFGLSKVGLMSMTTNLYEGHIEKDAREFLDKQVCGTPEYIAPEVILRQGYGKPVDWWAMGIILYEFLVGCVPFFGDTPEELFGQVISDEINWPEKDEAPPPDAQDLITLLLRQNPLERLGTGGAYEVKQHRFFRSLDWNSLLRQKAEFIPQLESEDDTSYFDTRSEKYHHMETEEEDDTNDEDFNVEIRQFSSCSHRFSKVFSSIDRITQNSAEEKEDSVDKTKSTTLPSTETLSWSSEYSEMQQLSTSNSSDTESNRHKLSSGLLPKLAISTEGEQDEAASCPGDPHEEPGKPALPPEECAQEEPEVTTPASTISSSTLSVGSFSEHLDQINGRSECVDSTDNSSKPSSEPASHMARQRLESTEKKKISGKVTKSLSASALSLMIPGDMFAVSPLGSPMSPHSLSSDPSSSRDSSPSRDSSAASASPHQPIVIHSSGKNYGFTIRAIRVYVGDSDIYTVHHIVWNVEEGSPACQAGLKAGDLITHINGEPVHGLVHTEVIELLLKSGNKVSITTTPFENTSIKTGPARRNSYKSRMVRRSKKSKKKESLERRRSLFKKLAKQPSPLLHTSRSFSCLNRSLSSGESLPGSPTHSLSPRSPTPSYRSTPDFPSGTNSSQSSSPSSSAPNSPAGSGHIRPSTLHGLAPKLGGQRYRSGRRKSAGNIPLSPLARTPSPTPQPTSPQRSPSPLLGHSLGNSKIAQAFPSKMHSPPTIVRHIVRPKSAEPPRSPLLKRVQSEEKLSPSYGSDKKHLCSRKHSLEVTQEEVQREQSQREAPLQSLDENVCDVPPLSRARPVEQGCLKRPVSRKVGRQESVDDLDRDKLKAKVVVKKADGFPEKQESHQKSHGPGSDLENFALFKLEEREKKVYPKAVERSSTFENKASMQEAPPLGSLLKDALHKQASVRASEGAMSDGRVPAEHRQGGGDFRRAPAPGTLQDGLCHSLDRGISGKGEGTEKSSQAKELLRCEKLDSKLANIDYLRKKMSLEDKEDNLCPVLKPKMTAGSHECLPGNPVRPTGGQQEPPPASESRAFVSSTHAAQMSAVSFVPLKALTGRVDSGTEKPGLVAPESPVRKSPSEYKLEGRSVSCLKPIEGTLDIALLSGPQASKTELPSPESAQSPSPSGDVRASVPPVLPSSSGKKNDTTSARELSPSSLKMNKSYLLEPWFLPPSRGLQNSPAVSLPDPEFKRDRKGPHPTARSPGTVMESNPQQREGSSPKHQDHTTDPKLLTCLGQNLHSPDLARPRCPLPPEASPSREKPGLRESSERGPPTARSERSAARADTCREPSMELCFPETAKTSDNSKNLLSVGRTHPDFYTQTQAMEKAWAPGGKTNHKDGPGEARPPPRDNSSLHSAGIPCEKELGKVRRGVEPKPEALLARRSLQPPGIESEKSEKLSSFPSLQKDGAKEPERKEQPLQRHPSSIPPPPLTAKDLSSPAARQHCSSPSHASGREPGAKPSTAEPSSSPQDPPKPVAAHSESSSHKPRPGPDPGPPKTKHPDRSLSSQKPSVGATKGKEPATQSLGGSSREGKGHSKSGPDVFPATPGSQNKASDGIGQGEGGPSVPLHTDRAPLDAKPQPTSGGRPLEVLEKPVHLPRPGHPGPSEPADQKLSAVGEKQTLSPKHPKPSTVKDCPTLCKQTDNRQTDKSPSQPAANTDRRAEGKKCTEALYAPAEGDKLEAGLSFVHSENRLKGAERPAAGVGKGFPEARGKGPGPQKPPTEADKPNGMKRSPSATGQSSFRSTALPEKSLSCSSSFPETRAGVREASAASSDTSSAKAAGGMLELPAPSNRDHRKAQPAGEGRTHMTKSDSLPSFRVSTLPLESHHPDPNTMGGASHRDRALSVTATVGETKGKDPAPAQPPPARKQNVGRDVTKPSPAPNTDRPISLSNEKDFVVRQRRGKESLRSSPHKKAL
T4 sequence (P78352 whole entry, the tested form may be a part): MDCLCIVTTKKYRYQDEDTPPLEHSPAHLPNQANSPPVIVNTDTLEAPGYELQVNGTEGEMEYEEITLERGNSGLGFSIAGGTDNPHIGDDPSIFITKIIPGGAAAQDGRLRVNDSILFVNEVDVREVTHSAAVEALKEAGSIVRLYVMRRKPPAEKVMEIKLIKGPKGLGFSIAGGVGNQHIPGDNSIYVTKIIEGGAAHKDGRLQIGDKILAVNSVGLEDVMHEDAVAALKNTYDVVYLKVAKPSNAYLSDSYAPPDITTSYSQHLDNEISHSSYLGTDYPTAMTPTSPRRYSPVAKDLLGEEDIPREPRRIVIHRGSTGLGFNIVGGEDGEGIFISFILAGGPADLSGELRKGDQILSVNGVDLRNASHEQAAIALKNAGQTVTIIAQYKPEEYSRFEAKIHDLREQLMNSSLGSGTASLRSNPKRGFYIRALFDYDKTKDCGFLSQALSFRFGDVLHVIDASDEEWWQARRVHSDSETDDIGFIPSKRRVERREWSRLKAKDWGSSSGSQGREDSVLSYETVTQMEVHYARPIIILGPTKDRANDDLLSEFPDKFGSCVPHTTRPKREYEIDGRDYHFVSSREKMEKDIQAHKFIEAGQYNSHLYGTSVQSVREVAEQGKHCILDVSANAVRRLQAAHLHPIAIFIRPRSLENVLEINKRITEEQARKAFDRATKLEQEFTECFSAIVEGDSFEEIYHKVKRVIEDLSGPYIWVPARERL
T7 sequence (Q12959 213-413 limits assumed): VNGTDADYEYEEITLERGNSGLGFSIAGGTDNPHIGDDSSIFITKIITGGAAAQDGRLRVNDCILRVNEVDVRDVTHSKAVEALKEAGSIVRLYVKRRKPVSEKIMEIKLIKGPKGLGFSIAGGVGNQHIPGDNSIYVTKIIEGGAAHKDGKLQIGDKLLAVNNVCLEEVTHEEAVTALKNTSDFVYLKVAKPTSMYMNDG
T8 sequence (P78352 58-398 limits assumed): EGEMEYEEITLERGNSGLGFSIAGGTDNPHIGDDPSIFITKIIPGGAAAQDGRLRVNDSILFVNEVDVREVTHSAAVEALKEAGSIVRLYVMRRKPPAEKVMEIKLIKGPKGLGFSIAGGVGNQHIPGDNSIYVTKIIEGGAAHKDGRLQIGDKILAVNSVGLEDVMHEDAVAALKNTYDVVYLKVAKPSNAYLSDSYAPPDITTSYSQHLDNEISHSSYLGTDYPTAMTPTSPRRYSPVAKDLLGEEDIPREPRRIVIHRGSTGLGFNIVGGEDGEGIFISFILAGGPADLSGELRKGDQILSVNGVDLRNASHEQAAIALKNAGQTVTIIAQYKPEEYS

`CNCCC=C1c2ccccc2CCc2ccccc21` [Nortryptilline, NORTRIPTYLINE HYDROCHLORIDE] was tested, and the “CHANGE IN OD: absorbance at 450 nm in presence of drug” value ([1]; OD in absence of drug 2.1, drug concentration per TABLE 11, read after 30 minutes) was 2.1 to 0.5 and the “antagonistic effect, binding relative to absence of drug” value ([1]; ZO-2 domain 1 and DNAM-1) was 4.2 fold.

“A2AB_HUMAN (modified) (Biotin-QDFRRAFRRILARPWTQTAW; not fully specified)” was tested, and the Classification [2] was 4 (A450 nm 3-4), the Classification [3] was 5 (A450 nm of 4 more than 2× repeated) and the Classification [4] was 5 (A450 nm of 4 more than 2× repeated). For the same molecule, the Classification ([5]; PDZ BAI-1, PDZ Domain 2) was 4 (A450 nm 3-4), the Classification ([5]; PDZ BAI-1, PDZ Domain 4) was 5 (A450 nm of 4 more than 2× repeated) and the Classification [6] was 4 (A450 nm 3-4).

With `CC(CN(C)C)CN1c2ccccc2CCc2ccccc21` (centres unmarked) [Trinipramine, TRIMIPRAMINE MALEATE] the “Change in OD: absorbance at 450 nm in presence of drug” value [7] was 1.1 to 2.2.

With “HPTDITGLPNLSDPSVSTVV (Biotin-HPTDITGLPNLSDPSVSTVV) [NMDA R2C]” the Classification [8] was 2 (A450 nm 1-2), the Classification [9] was 1 (A450 nm 0-1) and the Classification [10] was 1 (A450 nm 0-1). The Classification [11] was 1 (A450 nm 0-1) and the Classification [12] was 1 (A450 nm 0-1).
